Test results from PMC7610778 (Science (New York, N.Y.), 2020).
Where two headings read alike, the source gives them in different places.

B3: Atg12–Atg5-Atg16-mCherry complex (complex)
chain 1: MSRILESENETESDESSIISTNNGTAMERSRNNQELRSSPHTVQNRLELFSRRLSQLGLASDISVDQQVEDSSSGTYEQEETIKTNAQTSKQKSHKDEKNIQKIQIKFQPIGSIGQLKPSVCKISMSQSFAMVILFLKRRLKMDHVYCYINNSFAPSPQQNIGELWMQFKTNDELIVSYCASVAFG
chain 2: MNDIKQLLWNGELNVLVSIDPSFLMKGSPREIAVLRIRVPRETYLVNYMPLIWNKIKSFLSFDPLTDSEKYFWFEHNKTPIPWNYPVGVLFDCLAGKSATFTTSFENQVKDVLTFLRIHLVMGDSLPPTIIPIASSKTQAEKFWFHQWKQVCFILNGSSKAIMSLSVNEARKFWGSVITRNFQDFIEISNKISSSRPRHIPLIIQTSRTSGTFRISQPTISMTGVNPTLKDIEGDILDVKEGINGNDVMVICQGIEIPWHMLLYDLYSKLRSFDGFLYITLVPIKGGDKASSEL
chain 3: MGNFIITERKKAKEERSNPQTDSMDDLLIRRLTDRNDKEAHLNELFQDNSGAIGGNIVSHDDALLNTLAILQKELKSKEQEIRRLKEVIALKNKNTERLNDELISGTIENNVLQQKLSDLKKEHSQLVARWLKKTEKETEAMNSEIDGTK
modifications: Atg12–Atg5 conjugate | Atg12–Atg5 conjugate

How the values were obtained:
Experiment in all cases: pull-down
[1] = molecular target: T1, Atg19-3D (S390D, S391D, S396D) (S. cerevisiae, UniProt P35193 1-415, S390D | S391D | S396D)
T1 sequence: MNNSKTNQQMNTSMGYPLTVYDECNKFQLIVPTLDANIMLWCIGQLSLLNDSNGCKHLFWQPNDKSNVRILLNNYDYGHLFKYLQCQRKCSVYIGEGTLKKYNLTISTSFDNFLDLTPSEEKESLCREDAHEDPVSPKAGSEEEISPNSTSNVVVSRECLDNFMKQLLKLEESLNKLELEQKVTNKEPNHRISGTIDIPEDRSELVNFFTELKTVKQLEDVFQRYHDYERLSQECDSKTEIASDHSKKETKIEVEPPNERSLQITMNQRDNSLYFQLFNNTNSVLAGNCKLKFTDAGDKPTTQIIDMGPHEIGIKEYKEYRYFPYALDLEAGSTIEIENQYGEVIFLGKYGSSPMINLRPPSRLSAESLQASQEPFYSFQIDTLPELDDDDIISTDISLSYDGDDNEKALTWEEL

[2] = molecular target: B3
[3] = molecular target: B3; remark: listed apart in the source
Atg2-mEGFP = Atg2-mEGFP (yeast (S. cerevisiae), UniProt P53855 1-1592)
[4] = molecular target: Atg2-GFP-Atg18-CBP complex (yeast (S. cerevisiae), UniProt P53855;P43601)
Chain of Atg2-GFP-Atg18-CBP complex (P53855 whole entry, one chain of several): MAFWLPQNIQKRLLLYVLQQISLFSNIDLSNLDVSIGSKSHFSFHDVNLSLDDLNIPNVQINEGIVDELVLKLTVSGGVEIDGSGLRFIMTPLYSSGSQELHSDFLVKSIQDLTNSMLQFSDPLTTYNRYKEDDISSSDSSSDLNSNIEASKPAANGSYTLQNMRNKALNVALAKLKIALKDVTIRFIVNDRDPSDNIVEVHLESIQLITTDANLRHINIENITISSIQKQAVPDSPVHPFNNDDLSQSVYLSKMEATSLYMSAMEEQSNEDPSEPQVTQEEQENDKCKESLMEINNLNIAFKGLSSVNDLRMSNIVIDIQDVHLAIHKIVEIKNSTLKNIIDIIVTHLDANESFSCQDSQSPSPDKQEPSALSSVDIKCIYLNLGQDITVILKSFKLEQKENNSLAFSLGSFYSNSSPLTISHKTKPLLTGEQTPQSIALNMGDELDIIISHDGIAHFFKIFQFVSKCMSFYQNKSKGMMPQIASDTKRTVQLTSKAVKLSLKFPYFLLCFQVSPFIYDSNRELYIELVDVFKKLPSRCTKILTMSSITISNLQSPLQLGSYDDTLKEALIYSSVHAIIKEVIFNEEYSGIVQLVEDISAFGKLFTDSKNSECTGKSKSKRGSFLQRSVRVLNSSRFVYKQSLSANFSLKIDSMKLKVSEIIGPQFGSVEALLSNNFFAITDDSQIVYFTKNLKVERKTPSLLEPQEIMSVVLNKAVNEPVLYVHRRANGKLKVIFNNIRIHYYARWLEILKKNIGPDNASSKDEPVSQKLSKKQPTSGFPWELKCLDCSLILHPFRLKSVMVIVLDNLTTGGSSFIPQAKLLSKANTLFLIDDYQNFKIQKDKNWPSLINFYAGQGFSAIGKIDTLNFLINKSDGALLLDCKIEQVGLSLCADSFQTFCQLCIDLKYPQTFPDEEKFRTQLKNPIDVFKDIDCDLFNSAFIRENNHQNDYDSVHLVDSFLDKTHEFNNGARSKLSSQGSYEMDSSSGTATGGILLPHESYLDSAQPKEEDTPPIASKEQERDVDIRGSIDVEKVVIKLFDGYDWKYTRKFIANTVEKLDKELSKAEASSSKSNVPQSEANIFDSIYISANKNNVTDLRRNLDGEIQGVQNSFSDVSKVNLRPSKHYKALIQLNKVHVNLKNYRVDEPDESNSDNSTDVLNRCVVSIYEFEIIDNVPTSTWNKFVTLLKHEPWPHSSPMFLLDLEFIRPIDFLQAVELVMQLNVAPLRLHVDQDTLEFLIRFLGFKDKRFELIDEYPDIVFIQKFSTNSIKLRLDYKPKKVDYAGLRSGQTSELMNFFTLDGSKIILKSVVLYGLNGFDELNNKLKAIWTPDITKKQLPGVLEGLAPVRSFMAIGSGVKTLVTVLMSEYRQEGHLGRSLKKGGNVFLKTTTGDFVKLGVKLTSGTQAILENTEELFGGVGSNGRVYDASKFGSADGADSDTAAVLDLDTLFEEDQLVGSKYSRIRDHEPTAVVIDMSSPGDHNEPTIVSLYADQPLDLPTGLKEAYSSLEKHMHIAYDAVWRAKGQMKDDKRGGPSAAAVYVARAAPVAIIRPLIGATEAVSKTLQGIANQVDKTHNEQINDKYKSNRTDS

Chain of Atg2-mEGFP (P53855 whole entry): as the sequence (P53855 whole entry, one chain of several) above

## MEEQREILEQLKKTLQMLTVEPSKNNQIANEEKEKKENENS (domain or fragment) [GST-prApe1 (1-41)]
[1]
  binding result: binds

B1: mEGFP-Atg21 (natural protein)
chain: MKVLQFNQDATCCVVAASSHQISIFNCDPFGKCFEIDTKNSKKKTSNNNGSASNSESRNNEESILITNGSRDRTDAEEEEDNEDNALVTGNILKEGEFVIEMLFSTSLIAIADRGQGLNKGKKLKIVNTKRKCTICEIVFPHEIVDVVMNRKRMCVLLESDQIFIYDISCMKPLETIDLWEDHYKRSQANSFSNASNTGTLEGDSANLNRVATNLLANATQKSVNGSNPSVRTRRNSLRSKIRPRMVLSNDDRSILCFTAYSSPKKNKPNSEALYDVVIYDTLNVTPVNYLNSVHKGNVACLAVSHDGKLLATASDKGTIIRVFHTGVDSDYMSSRSLFKEFRRGTRLCNLYQLAFDKSMTMIGCVGDTDTIHLFKLDDASNSLPGDNSSNGHWNEEEYILASNSNPSMGTPKEIPLSKPRIANYFSKKIKSSIPNQNLSRNFAYITVNESNRSCLGFPDEFPNQVYIASDDGTFSIYSIPSKPGECVLTKNNKFT
[2]
  binding result: binds

B2: Atg18-mEGFP (natural protein)
chain: MSDSSPTINFINFNQTGTCISLGTSKGFKIFNCEPFGKFYSEDSGGYAIVEMLFSTSLLALVGIGDQPALSPRRLRIINTKKHSIICEVTFPTSILSVKMNKSRLVVLLQEQIYIYDINTMRLLHTIETNPNPRGLMAMSPSVANSYLVYPSPPKVINSEIKAHATTNNITLSVGGNTETSFKRDQQDAGHSDISDLDQYSSFTKRDDADPTSSNGGNSSIIKNGDVIVFNLETLQPTMVIEAHKGEIAAMAISFDGTLMATASDKGTIIRVFDIETGDKIYQFRRGTYATRIYSISFSEDSQYLAVTGSSKTVHIFKLGHSMSNNKLDSDDSNMEEAAADDSSLDTTSIDALSDEENPTRLAREPYVDASRKTMGRMIRYSSQKLSRRAARTLGQIFPIKVTSLLESSRHFASLKLPVETNSHVMTISSIGSPIDIDTSEYPELFETGNSASTESYHEPVMKMVPIRVVSSDGYLYNFVMDPERGGDCLILSQYSILMD
[3]
  binding result: binds

## B3
Atg2-mEGFP
  binding result: binds
[4]
  binding result: binds
